Data: patent US8409836B2, “Treatment of cellulosic material and enzymes useful therein” (Roal Oy, priority 2005, dated 2013)

B1: Ct Cel7A: cellobiohydrolase of Chaetomium thermophilum ALKO4265, gene Ct cel7A, amino acid SEQ ID NO: 8, with CBD (protein)
chain: MMYKKFAALAALVAGASAQQACSLTAENHPSLTWKRCTSGGSCSTVNGAVTIDANWRWTHTVSGSTNCYTGNQWDTSLCTDGKSCAQTCCVDGADYSSTYGITTSGDSLNLKFVTKHQYGTNVGSRVYLMENDTKYQMFELLGNEFTFDVDVSNLGCGLNGALYFVSMDADGGMSKYSGNKAGAKYGTGYCDAQCPRDLKFINGEANVGNWTPSTNDANAGFGRYGSCCSEMDVWEANNMATAFTPHPCTTVGQSRCEADTCGGTYSSDRYAGVCDPDGCDFNAYRQGDKTFYGKGMTVDTNKKMTVVTQFHKNSAGVLSEIKRFYVQDGKIIANAESKIPGNPGNSITQEYCDAQKVAFSNTDDFNRKGGMAQMSKALAGPMVLVMSVWDDHYANMLWLDSTYPIDQAGAPGAERGACPTTSGVPAEIEAQVPNSNVIFSNIRFGPIGSTVPGLDGSNPGNPTTTVVPPASTSTSRPTSSTSSPVSTPTGQPGGCTTQKWGQCGGIGYTGCTNCVAGTTCTQLNPWYSQCL
B2: Tr Cel7A: purified cellobiohydrolase I (CBHI/Cel7A) of Trichoderma reesei used as a reference (protein, UniProt P62694 18-513, looked up)
Exoglucanase 1: QSACTLQSETHPPLTWQKCSSGGTCTQQTGSVVIDANWRWTHATNSSTNCYDGNTWSSTLCPDNETCAKNCCLDGAAYASTYGVTTSGNSLSIGFVTQSAQKNVGARLYLMASDTTYQEFTLLGNEFSFDVDVSQLPCGLNGALYFVSMDADGGVSKYPTNTAGAKYGTGYCDSQCPRDLKFINGQANVEGWEPSSNNANTGIGGHGSCCSEMDIWEANSISEALTPHPCTTVGQEICEGDGCGGTYSDNRYGGTCDPDGCDWNPYRLGNTSFYGPGSSFTLDTTKKLTVVTQFETSGAINRYYVQNGVTFQQPNAELGSYSGNELNDDYCTAEEAEFGGSSFSDKGGLTQFKKATSGGMVLVMSLWDDYYANMLWLDSTYPTNETSSTPGAVRGSCSTSSGVPAQVESQSPNAKVTFSNIKFGPIGSTGNPSGGNPPGGNRGTTTTRRPATTTGSSPGPTQSHYGQCGGIGYSGPTVCASGTTCQVLNPYYSQCL

What was measured:
Type in all cases: biochemical
[1] = Specific activity against Avicel; details: 50° C., pH 5.0, 24 h, 1% substrate, 0.25 μM enzyme
Protocol: (§1) The specific activity of the preparations was determined using 4-methylumbelliferyl-β-D-lactoside (MUL), 4-methylumbelliferyl-β-D-cellobioside (MUG2) or 4-methylumbelliferyl-β-D-cellotrioside (MUG3) as substrate (van Tilbeurgh et al., 1988) in 0.05 M sodium citrate buffer pH 5 at 50° C. for 10 min. Endoglucanase and xylanase activities were determined by standard procedures (according to IUPAC, 1987) using carboxymethyl cellulose (CMC) and birch glucuronoxylan (Bailey et al., 1992) as substrates. Specific activity against Avicel was calculated on the basis of reducing sugars formed in a 24 h reaction at 50° C., pH 5.0, with 1% substrate and 0.25 μM enzyme dosage. The protein content of the purified enzyme preparations was measured according to Lowry et al., 1951. To characterize the end products of hydrolysis, soluble sugars liberated in 24 h hydrolysis experiment, as described above, were analysed by HPLC (Dionex). Purified cellobiohydrolase I (CBHI/Cel7A) of Trichoderma reesei was used as a reference.

[2] = Hydrolysis with CBH enzyme mixtures, Avicel; details: additional enzymes EGII, bG; 48 h, 45° C., pH 5.0
Protocol: (§2) The performance of the purified recombinant cellobiohydrolases was evaluated in the hydrolysis studies with purified T. reesei enzymes. Hydrolysis was carried out with controlled mixtures of purified enzymes on several pre-treated substrates. […] In addition, pure T. reesei cellulases (purified as described by Suurnäkki et al., 2000) were used in the enzyme mixtures. The cellobiohydrolases used in the experiment were:
(§3) Each CBH/Cel7 to be tested (dosage 14.5 mg/g dry matter of substrate) was used either together with EGII/Cel5A of T. reesei (3.6 mg/g) or with a mixture containing T. reesei EGI/Cel7B (1.8 mg/g), EGII/Cel5A (1.8 mg/g), xylanase pI 9 (Tenkanen et al. 1992) (5000 nkat/g) and acetyl xylan esterase (AXE) (Sundberg and Poutanen, 1991) (250 nkat/g). All mixtures were supplemented with additional β-glucosidase from a commercial enzyme preparation Novozym 188 (176 nkat/g d.w.). Triplicate tubes containing the enzyme mixture and 10 mg (dry matter)/ml of the substrate suspended in 0.05 M sodium acetate were incubated in mixing by magnetic stirring at 45° C. for 48 h. Reference samples with inactivated enzymes and corresponding substrates were also prepared. The release of hydrolysis products was measured as reducing sugars with DNS method using glucose as standard (Table 30).
Crystalline cellulose (Avicel)

[3] = Endoglucanase activity on carboxymethyl cellulose; details: purified cellobiohydrolases, 50° C., pH 5.0
Protocol: as §1
Acremonium thermophilum ALKO4245 was grown as described in Example 1. The culture supernatant was incubated at 70° C. for 24 hours after which it was concentrated by ultrafiltration. The pure endoglucanase was obtained by sequential purification with hydrophobic interaction and cation exchange chromatography followed by gel filtration. The endoglucanase activity of the fractions collected during purification was determined using carboxymethyl cellulose (CMC) as substrate (procedure of IUPAC 1987). Protein content was measured by BioRad Assay Kit (Bio-Rad Laboratories) using bovine serum albumine as standard.
Thermoascus aurantiacus ALKO4242 was grown as described in Example 1. The pure endoglucanase was obtained by sequential purification with hydrophobic interaction and anion exchange chromatography followed by gel filtration. The endoglucanase activity of the fractions collected during purification was determined using carboxymethyl cellulose (CMC) as substrate (procedure of IUPAC 1987). Protein content was measured by BioRad Assay Kit (Bio-Rad Laboratories) using bovine serum albumine as standard.

[4] = Hydrolysis with CBH enzyme mixtures, corn stover; details: additional enzymes EGII, bG, 48 h, 45° C., pH 5.0
Protocol: as §2, §3
Washed wet oxidized corn stover fibre (WOCS).

[5] = Specific activity on MUG2; details: purified cellobiohydrolases, 50° C., pH 5.0
Protocol: as §1

[6] = Thermal stability of purified cellobiohydrolases; details: 0.1% BSA, pH 5.0, 60 min, MUL substrate
Protocol: Thermal stability of the purified cellobiohydrolases was determined at different temperatures. The reaction was performed in the presence of 0.1% BSA at pH 5.0 for 60 min using 4-methylumbelliferyl-β-D-lactoside as substrate. C. thermophilum ALKO4265 CBH/Cel7A and A. thermophilum ALKO4245 CBH/Cel7A were stable up to 65° and 60° C., respectively. The T. reesei reference enzyme (CBHI/Cel7A) retained 100% of activity up to 55° C.

[7] = Specific activity on MUG3; details: purified cellobiohydrolases, 50° C., pH 5.0
Protocol: as §1

[8] = Xylanase activity on birch xylan; details: purified cellobiohydrolases, 50° C., pH 5.0
Protocol: as §1
Acremonium thermophilum ALKO4245 was grown as described in Example 1. The culture supernatant was incubated at 70° C. for 24 hours after which, it was concentrated by ultrafiltration. The pure xylanase was obtained by sequential purification with hydrophobic interaction and cation exchange chromatography followed by gel filtration. The xylanase activity was determined using birch xylan as substrate (procedure of IUPAC 1987). Protein was assayed by BioRad Protein Assay Kit (Bio-Rad Laboratories) using bovine serum albumin as standard.
Thermoascus aurantiacus ALKO4242 was grown as described in Example 1. The pure xylanase was obtained by sequential purification with hydrophobic interaction, anion, and cation exchange chromatography followed by gel filtration. The xylanase activity was determined using birch xylan as substrate (procedure of IUPAC 1987). Protein was assayed by BioRad Protein Assay Kit (Bio-Rad Laboratories) using bovine serum albumin as standard.

[9] = Specific activity on MUL; details: purified cellobiohydrolases, 50° C., pH 5.0
Protocol: as §1

[10] = pH optimum of recombinant CBH/Cel7 proteins; details: McIlvaine buffer, pH range 3.0-8.0, MUL, 50° C., 10 min
Protocol: The recombinant CBH/Cel7 enzyme preparations were characterized in terms of pH optimum and thermal stability. The pH optimum of the recombinant CBH/Cel7 proteins from Thermoascus aurantiacus, Chaetomium thermophilum, and Acremonium thermophilum were determined in the universal McIlvaine buffer within a pH range of 3.0-8.0 using 4-methylumbelliferyl-β-D-lactoside (MUL) as a substrate (FIG. 3A). The pH optimum for Ct Cel7A and At Cel7A enzymes is at 5.5, above which the activity starts to gradually drop. The pH optimum of the recombinant crude Ta Cel7A is at 5.0 (FIG. 3A). Thermal stability of the recombinant Cel7 enzymes was determined by measuring the MUL activity in universal McIlvaine buffer at the optimum pH with reaction time of 1 h.

[11] = Hydrolysis with CBH enzyme mixtures, willow; details: additional enzymes EGII, bG, 48 h, 45° C., pH 5.0
Protocol: as §2, §3
Washed steam pre-treated willow fibre (pre-treatment for 14 min at 210° C.), dry matter 23.0% (WILLOW).

[12] = Hydrolysis with CBH enzyme mixtures, spruce; details: additional enzymes EGII, bG; 48 h, 45° C., pH 5.0
Protocol: as §2, §3
Washed steam pre-treated spruce fibre (impregnation with 3% w/w SO2 for 20 min, followed by steam pre-treatment at 215° C. for 5 min), dry matter 25.9% (SPRUCE).

Molecule	Specific activity, Avicel [1] [nkat/mg]	Hydrolysis products as reducing sugars, Avicel [2] [mg/mL]	Specific activity, CMC [3] [nkat/mg]	Hydrolysis products as reducing sugars, WOCS ([4]; EGI, XYL, AXE) [mg/mL]	Hydrolysis products as reducing sugars, WOCS [4] [mg/mL]	Specific activity, MUG2 [5] [nkat/mg]	Thermal stability: temperature up to which stable / 100% of activity retained [6]	Specific activity, MUG3 [7] [nkat/mg]	Specific activity, Xylan [8] [nkat/mg]	Specific activity, MUL [9] [nkat/mg]	pH optimum [10]	Hydrolysis products as reducing sugars, WILLOW ([11]; EGI, XYL, AXE) [mg/mL]	Hydrolysis products as reducing sugars, WILLOW [11] [mg/mL]	Hydrolysis products as reducing sugars, SPRUCE [12] [mg/mL]
B1	1.4	6.0	5.5	5.6	3.4	18.9	up to 65 °C	1.5	6.7	54.0	5.5	4.0	2.6	2.6
B2	0.6	4.7	1.0	6.0	2.9	4.3	up to 55 °C	0.9	1.3	21.9		4.1	2.9	2.9
